From patent US20070031442A1

What was measured:
soluble CD8αα (human) [1] = target: soluble CD8αα (human) (UniProt P01732); test: surface plasmon resonance
soluble CD8αα (human) [2] = target: soluble CD8αα (human) (UniProt P01732); test: method not given
soluble CD8αα (human) [3] = target: soluble CD8αα (human) (UniProt P01732); test: surface plasmon resonance with sCD8αα wt; mean KD (n=3) printed over the bar, error bar drawn; sheet caption 'HLA A*0201 [..] tetramers'
soluble CD8αα (human) [4] = target: soluble CD8αα (human) (UniProt P01732); test: surface plasmon resonance, biotinylated pMHCI monomer

Substance: wild type HLA A*68011 biotinylated pMHCI (from UniProt P61769 21-119) (peptide-MHC)
- Kd (soluble CD8αα (human) [1]): 980 µM

Substance: A2Kb chimeric class I pMHCI (HLA A2 with the α3 domain of murine H-2K^b) (from UniProt P61769 21-119) (peptide-MHC)
- Kd (soluble CD8αα (human) [2]): < 5 µM

Substance: wild type HLA A*0201 biotinylated pMHCI monomer (from UniProt P61769 21-119) (peptide-MHC)
- Kd (soluble CD8αα (human) [3]): 128 µM
- Kd (soluble CD8αα (human) [2]): 128 µM
- Kd (soluble CD8αα (human) [4]): 135 µM

Substance: 245A substituted HLA A*68011 biotinylated pMHCI (from UniProt P61769 21-119) (peptide-MHC)
- Kd (soluble CD8αα (human) [1]): 102 µM
